B1: MMP1 (parent)
chain: FHGTRQYKFDPKTKRILTLQKANS

Variants of: B1
Assay: protein stability index of a GFP-peptide fusion (GPS, HEK-293T) (PSI 1-6); higher = more stable
Conditions: c terminus: a fixed tail appended
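Also: lentivirally expressed fusions sorted by FACS into six bins by GFP to DsRed ratio, PSI derived from sequencing read proportions per bin multiplied by bin number.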

Variant | protein stability index
FHGTRQYKCDPKTKRILTLQKANS | 2.48
FHGTRQYKGDPKTKRILTLQKANS | 2.24
FHGTRQYKYDPKTKRILTLQKANS | 1.75
FHGTRQYKEDPKTKRILTLQKANS | 1.76
FHGTRQYKTDPKTKRILTLQKANS | 1.55
FHGTYQYKFDPKTKRILTLQKANS | 2.13
FHGTAQYKFDPKTKRILTLQKANS | 1.8
FHGTLQYKFDPKTKRILTLQKANS | 2.2
FHGTHQYKFDPKTKRILTLQKANS | 2.07
FHGTWQYKFDPKTKRILTLQKANS | 2.45
FHGTGQYKFDPKTKRILTLQKANS | 1.88
FHGTMQYKFDPKTKRILTLQKANS | 2.3
FAGTRQYKFDPKTKRILTLQKANS | 1.69
FDGTRQYKFDPKTKRILTLQKANS | 3.55
FIGTRQYKFDPKTKRILTLQKANS | 2.47
FKGTRQYKFDPKTKRILTLQKANS | 2.57
FQGTRQYKFDPKTKRILTLQKANS | 2.19
FCGTRQYKFDPKTKRILTLQKANS | 1.88
FEGTRQYKFDPKTKRILTLQKANS | 3.03
FWGTRQYKFDPKTKRILTLQKANS | 2.29
FVGTRQYKFDPKTKRILTLQKANS | 1.91
FLGTRQYKFDPKTKRILTLQKANS | 2.36
FHGTRQYKFDPKKKRILTLQKANS | 2
FHGTRQYKFDPKIKRILTLQKANS | 1.8

Variant | protein stability index
FHGTRQYKFDPKGKRILTLQKANS | 1.62
FHGTRQYKFDPKLKRILTLQKANS | 2.09
FHGTRQYKFDPKSKRILTLQKANS | 1.99
FHGTRQYKFDPKVKRILTLQKANS | 1.6
FHGTRQYKFDPKDKRILTLQKANS | 2.33
FHGTRQYKFDPKRKRILTLQKANS | 1.85
FHGTRQYKFDPKHKRILTLQKANS | 2.21
FHGTRQYKFDPKAKRILTLQKANS | 2.3
FHGTRQYKFDPKTKRILKLQKANS | 1.34
FHGTRQYKFDPKTKRILHLQKANS | 1.39
FHGTRQYKFDPKTKRILGLQKANS | 1.86
FHGTRQYKFDPKTKRILELQKANS | 2.07
FHGTRQYKFDPKTKRILALQKANS | 2.05
FHGTRQYKFDPKTKRILILQKANS | 1.61
FHGTRQYKFDPKTKRIPTLQKANS | 1.57
FHGTRQYKFDPKTKRIQTLQKANS | 2.19
FHGTRQYKFDPKTKRICTLQKANS | 2.02
FHGTRQYKFDPKTKRIFTLQKANS | 1.56
FHGTRQYKFDPKTKRIDTLQKANS | 1.91
FHGTRQYKFDPKTKRIVTLQKANS | 1.73
FHGTRQYKFDPKTKRIATLQKANS | 1.92
FHVTRQYKFDPKTKRILTLQKANS | 2.3
FHLTRQYKFDPKTKRILTLQKANS | 1.63
FHDTRQYKFDPKTKRILTLQKANS | 2.29

Variant | protein stability index
FHITRQYKFDPKTKRILTLQKANS | 1.78
FHYTRQYKFDPKTKRILTLQKANS | 1.96
FHWTRQYKFDPKTKRILTLQKANS | 2.02
FHETRQYKFDPKTKRILTLQKANS | 2.61
FHCTRQYKFDPKTKRILTLQKANS | 2.63
FHGTRQYKFDPKTKRILTLQKSNS | 2.51
FHGTRQYKFDPKTKRILTLQKRNS | 1.65
FHGTRQYKFDPKTKRILTLQKINS | 1.38
FHGTRQYKFDPKTKRILTLQKGNS | 1.73
FHGTRQYKFDPKTKRILTLQKVNS | 1.45
FHGTRQYKFDPKTKRILTLQKMNS | 1.83
FHGTRQYKFDPKTKRILTLQKQNS | 2.06
FHGTRQYKFDPKTKRILTLQKDNS | 1.48
FHGTRQYAFDPKTKRILTLQKANS | 2.04
FHGTRQYYFDPKTKRILTLQKANS | 2.22
FHGTRQYHFDPKTKRILTLQKANS | 1.76
FHGTRQYSFDPKTKRILTLQKANS | 2.52
FHGTRQYWFDPKTKRILTLQKANS | 3.37
FHGTRQYIFDPKTKRILTLQKANS | 2.49
FHGTRQYFFDPKTKRILTLQKANS | 2.76
FHGTRQYCFDPKTKRILTLQKANS | 2.73
FHGTRQYGFDPKTKRILTLQKANS | 2.24
FHGTRQYDFDPKTKRILTLQKANS | 2.07
FHGTRQYMFDPKTKRILTLQKANS | 2.63

Variant | protein stability index
FHGTRQYPFDPKTKRILTLQKANS | 1.71
FHGTRQYEFDPKTKRILTLQKANS | 2.21
FHGTRQYKFDPKTNRILTLQKANS | 2.14
FHGTRQYKFDPKTLRILTLQKANS | 1.99
FHGTRQYKFDPKTMRILTLQKANS | 2.16
FHGTRQYKFDPKTTRILTLQKANS | 1.61
FHGTRQYKFDPKTYRILTLQKANS | 1.36
FHGTRQYKFDPKTARILTLQKANS | 2.68
FHGTRQYKFDPKTHRILTLQKANS | 1.54
FHGTRQYKFDPKTVRILTLQKANS | 2.53
FHGTRQYKFDPKTKRILTLQKANP | 2.08
FHGTRQYKFDPKTKRILTLQKANV | 1.79
FHGTRQYKFDPKTKRILTLQKANL | 1.76
FHGTRQYKFDPKTKRILTLQKANQ | 2.07
FHGTRQYKFDPKTKRILTLQKANT | 1.65
FHGTRQYKFDPKTKRILTLQKANG | 2.03
FHGTRQYKFDPKTKRILTLQKANF | 1.59
FHGTRQYKFDPKTKRILTLQKANN | 2.16
FHGTRQYKFDPKTKRPLTLQKANS | 1.93
FHGTRQYKFDPKTKRELTLQKANS | 1.93
FHGTRQYKFDPKTKRMLTLQKANS | 1.64
FHGTRQYKFDPKTKRFLTLQKANS | 1.64
